The assay concerns the target CD48 (UniProt P09326). Description: cell-based or functional assay.
Sequence of UniProt P09326 (P09326 27-220 limits assumed): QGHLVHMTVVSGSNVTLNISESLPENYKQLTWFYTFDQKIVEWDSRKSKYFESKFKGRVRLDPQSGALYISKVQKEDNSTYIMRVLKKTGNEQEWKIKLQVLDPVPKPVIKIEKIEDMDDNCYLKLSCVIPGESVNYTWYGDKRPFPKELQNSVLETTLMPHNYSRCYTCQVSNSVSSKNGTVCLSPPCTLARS

“2B4 (CD244) (from UniProt Q9BZW8 22-370) (receptor)” gave an NK cells expressing MIP-1α after incubation with S2 cells expressing B7H7 and CD48 of 70%; an NK cells with at least 3 different responses after incubation with S2 cells expressing B7H7 and CD48 of 10%.

The values are drawn from patent publication US20230190800A1.
